Results reported in article PMC4586751.

Key:
[1] = target: F-actin (polymerised chicken muscle G-actin) (chicken) (UniProt P68139); test: co-sedimentation
[2] = target: E-cad/α monomer (recombinant; entire E-cadherin cytoplasmic tail fused to αE-catenin) (mouse) (UniProt P09803); test: ITC
[3] = target: E-cadΔ70/α monomer (recombinant; E-cadherin cytoplasmic tail lacking the C-terminal 70 aa fused to αE-catenin) (mouse) (UniProt P09803); test: ITC

E-cadΔ70/α homodimer (recombinant) (from UniProt P09803 736-815) (complex)
Kd [1]: 1600 nM

β-catenin (full-length mouse, recombinant) (from UniProt Q02248 1-781) (natural protein)
Kd [2]: 74 nM
dH [2]: -58 kcal/mol
Kd [3]: 36.6 nM
dH [3]: -16.9 kcal/mol
stoichiometry N [3]: 1
